In this assay the target is full length human CNTFR (hCNTFR, amino acids 1-372, UniProtKB/Swiss-Prot Accession #P26992) (human) (UniProt P26992). The assay is described as follows: cell-based or functional assay.
Sequence of full length human CNTFR (P26992 23-342 limits assumed, one chain of several): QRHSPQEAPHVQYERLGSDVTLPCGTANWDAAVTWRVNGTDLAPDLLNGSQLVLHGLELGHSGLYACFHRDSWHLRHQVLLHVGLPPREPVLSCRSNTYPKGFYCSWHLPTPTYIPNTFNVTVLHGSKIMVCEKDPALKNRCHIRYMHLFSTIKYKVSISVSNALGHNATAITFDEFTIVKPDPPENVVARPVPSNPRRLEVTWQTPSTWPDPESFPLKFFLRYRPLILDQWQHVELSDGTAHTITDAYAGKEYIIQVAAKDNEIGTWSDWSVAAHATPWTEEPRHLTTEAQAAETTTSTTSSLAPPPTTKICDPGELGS

In turn, “human Ciliary Neurotrophic Factor (hCNTF, R&D Systems, 257-NT) (from UniProt P26441 2-200) (ligand)” gave a Ligand EC50 [M], activation of IMR-32/STAT3-luc cells (luciferase) of 2.26e-12 M. “human Cytokine-like Factor 1/human Cardiotrophin-like cytokine complex (hCLF-1/CLC, R&D Systems 1151-CL) (from UniProt O75462 38-422; Q9UBD9 28-225) (ligand)” came in with a Ligand EC50 [M], activation of IMR-32/STAT3-luc cells (luciferase) of 9.63e-11 M.
